Results reported in the nanobody polyreactivity screen of Harvey et al. (2022).

test: yeast display, Sf9 membrane polyspecificity reagent, FACS + sequencing; frameworks hold sequencing errors
How it was run: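 Synthetic nanobody libraries on Saccharomyces cerevisiae BJ5465 were galactose-induced for 36–48 hours, stained 1 hour at 4 °C with 10% biotinylated, detergent-solubilized Sf9 membrane reagent and enriched on streptavidin microbeads. FACS then separated cells into low and high (top ~1%) gates by anti-HA (expression) and streptavidin (reagent binding) fluorescence. Genes were colony-PCR amplified, MiSeq 2 × 250 sequenced and CDR-length filtered. A clone's polyreactivity label is that of its gate of origin.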

Sequence | polyreactivity (PSR sort gate)
QVQLIESGGGLVQAGGSLRLSCAASGSIFAANAMGWYRQAPGKEREFVASISYTGASTYADSVKGRFTISRDNAKNTVYFQMNSLKPEDTAVYYCAKDGYWTGLDPYYYWGQGTQVTVSS | low polyreactivity
QVQLIESGGGLVQAGGSLRLSCAASGSIFYNNTMGWYRQAPGKERELVATIRTSGGSTYADSVKGRYTISRDNAKNTLYLQMNSLKPEDTAVYYCAVRRYRSSSYYYWGQGTQVTVSS | high polyreactivity
QVQLIESGGGLVQAGGSLRLSCAASGSTFYGNAMGWYRQAPGKEREFVAAITGSGDSTDYADSVKGRFTISRDNAKNTVYLQMNSLIPEDTAVYYCNAVGYTPSKPSKFDYWGQGTQVTVSS | low polyreactivity
QVQLKESGVGLVQAGGSLRLSCAASGTIYWLWSMGWYCQAPGKERELVASISSGGTTYHADSVKGRFTISRDNAKNTVYLQMNSLNPEDTAVYYSAAFYVATAKLGYWGQGSQVTVSS | low polyreactivity
QVQLLDSGGGLVKAGGILRLSCAASGRTFGRYAMGCYRQSPGKERELVATISSRGGNAYYAESVKGRFTISRDNAKNTVYFQMNSLKPEYTGVYYCEAQTYKCYDWRQGTQVTVSS | high polyreactivity
QVQLLESCGGLDQAGGSLRLSCAASGSTFGTNAMGWYRKAPGKERELVAAITSSGGSTNYADSVKWRFTISLDNANNSVYFQMNCLKPEDTAVYYCNDVSYSTTYGGDSWGQGTQVTVSS | low polyreactivity
QVQLLESCGGLVQAGGSLRLSCAASGGTFQRYAMGWYRQAPGKERELVAAISSGGRTYYADSVKGRFTISRDNAKNTVYLEMNSLKAEDNAVYYCNAVGWTQRGRMFEYWGQGTQVTVSS | high polyreactivity
QVQLLESGAGLVQAGGSLRLSCAASGYIFYTYAMGWYRQAPGKERELVAAISSNGGSTYYADSVKGRFTISRDHAKNTVYLQMNSLKPEDTAVYYCAARGPYTRYRLSMDYWGQGTQVTVSS | high polyreactivity
QVQLLESGGGFVQAGGSLRLSCAASGQTFHGNTMGWYRQAPGKERELVAAISFDGGNTYADSVKGRFTKSRDNAKTSVYLHMNSLKPEDSAVYYDYWGPGTQVTVSS | low polyreactivity
QVQLLESGGGIVQAGGSLRLSCAASGRTFSRYVMGWYRQAPGKERELVATISRSGGSTFYADSVKGRFTISRDNAKNTVYLQMNSLKPEDTAVYYCNKKVQGYQVTYGYWGQGTQVTVSS | high polyreactivity
QVQLLESGGGLDQARGSLRLSCAASGRTFYGYGMGWSRQAPGKEREFVAAISYSGGSTYYADSVKGRFTISRDNAKNTVYLQMNSLKPEDTAVYYSAARNRGSCYYYWGQGTQVTVSS | high polyreactivity
QVQLLESGGGLVQAGASLRLSCAASGSTFSYYAMGWYRQAPGKERELDAAISWRGSSTYYADSVKRRITISRDNANNTVYLQMNSLTPEATAVYYCAAGYPGRVSGYLYGTRATYYYWGQGTQVTVSS | high polyreactivity
QVQLLESGGGLVQAGGILRLRCAASGIIVRGYVMGWYRQAPGKESELVAAISTSGGRTSYADSVKGRFTISRDNAKNTVYLQMNSLKPEDTAVYYCAARPLYSYSQSGYGYWGQGTQVTVSS | high polyreactivity
QVQLLESGGGLVQAGGSDRLSCAASGSIFSFNAMGWYRQAPGKERELVAAISRGGSTYYADSVKGRFTISRDNAKNTVYLQLNSLKPEDTAVYYCAADIYGHSYSYYLGEYWGQGTQVTVSS | high polyreactivity
QVQLLESGGGLVQAGGSIRLSFADSAFIFTSYSIGRYRQAPGKEREFVAAISWTGGTYYADSVKGRFTISRDNAKNTVYFLINSLKPEDTAVYYCAVRYKRKGSGYRYYLYVYWGQGTQVTVSS | high polyreactivity
QVQLLESGGGLVQAGGSLRISCAASGSTLRTNAMGWYRQAPGKERELVAAISTRGSSTYYADSVKGRFTISRDNSKNTVYLQMNSLKPEDTAVYYCAKDGVWYYSGTGMDYWGQGTQVTVSS | low polyreactivity
QVQLLESGGGLVQAGGSLRLCCASSGYIFWGANMGWYRQAPGKEREFVAAIGHGTVTCYADSVKGRFTISRDNAKNTVYLQMNSLKPEDTAVYNCAAYSDVRKPHRYWGQGTQVTVVS | high polyreactivity
QVQLLESGGGLVQAGGSLRLICAASGSTFVVYAMGWYRQAPGKERELVAAIRSGGGTYYADSVKGRFTISRDNAKNTVYLQMNSQKPEDTAVYYCNADSDPGPAYVYRDLYDYWGQGTQVTLSS | low polyreactivity
QVQLLESGGGLVQAGGSLRLSCAASGFIFYHYAMGWYIQAPGKERELVAANSRSGTSTYYADSVKGRFTISRDNAKNTVYLQMNSLKPEDTAVYYCNAVYTRYVYYYYEYDYWGQGTQVTVSS | high polyreactivity
QVQLLESGGGLVQAGGSLRLSCAASGFTFAWYAMGWYRQAPGKERELVAAISSRGSRTRYADSVKGRFTISRDNAKNTVYLQLNSLKPEDTAFYYCAKGSGARVVQVDRSGDYWGQGTQVTVSS | high polyreactivity
QVQLLESGGGLVQAGGSLRLSCAASGFTFGRYAMGWYRQAPGKERELVAAINTSGDRTFYADSVKGRFTISRDNAKNTVYLQMNSLKPVDTAVYYCAADVQSWVYPGSLYYWTYDFWGQGTQVTVSS | high polyreactivity

Sequence | polyreactivity (PSR sort gate)
QVQLLESGGGLVQAGGSLRLSCAASGFTFTYYAMGWYRQAPGKERELVAAISRRGGSTYYADSVKGRFTISRDNAKNTVYLQMNSLKPEDTAVYYCARDYNSAVGMVYWGQGTQVTVSS | high polyreactivity
QVQLLESGGGLVQAGGSLRLSCAASGITFSRNAMGWYRQAPGKERELVATITSGGSTNYADSVKGRFTITRDNAMNTVYLQMISLKPEDTAVYYCYAVWNTFISGRSYEYWGQGTQVTVSS | low polyreactivity
QVQLLESGGGLVQAGGSLRLSCAASGLTICYYAMGWYRQAPGKEREYVAAITSRGGDTYYADSVKGRFTISRDNAKNTVYLEMNSLKPEDTAVYYCAVRPRYYGTYRYYYWGQGTQVTVSS | high polyreactivity
QVQLLESGGGLVQAGGSLRLSCAASGLTIKQYAMGWYRQAPGKESELVAAISKSGGRTYYADSVKGRFTISRDNAKNTVYLQMNSLKPEDTAVYYCNARAGQRQGWEYDYWGQGTQVTVSS | high polyreactivity
QVQLLESGGGLVQAGGSLRLSCAASGRIFNPYAMGWFRQARGKERALVAASSSCGDRTFYADSVKGRFTISRDNAKNTVYLQMNSRKPEDTAVYFCNTVVYTRFRPWRYGYCGQGTQVTVSS | high polyreactivity
QVQLLESGGGLVQAGGSLRLSCAASGRIFPYNAMGWYRQAPGKERELVAAISRSGGRTYYADSVKGRFTISRDNAKNTVYLQRNSLKPEDTAVYYCAAKYQAGENYWGQGTQVTVSS | high polyreactivity
QVQLLESGGGLVQAGGSLRLSCAASGRIFSFYTMGWYRQAPGKERELVAAITWRGGSTYYADSVKGRFTISRDNAKNTVYLQMNSLKPEDTAVYYCAAEVYGAVYDYWGQGTQVTVSS | low polyreactivity
QVQLLESGGGLVQAGGSLRLSCAASGRIFSRYAMGWYRQAPGKERELVASISWSGDGTYYADSVKGRFTISRDNAKNTVYLQMNSLKPEDTAVYYCAAAPWDAPWSGYEYWGQGTEVTVSS | high polyreactivity
QVQLLESGGGLVQAGGSLRLSCAASGRIFVRNAMGWYRQAPGKERELVAAITSSGGRTYYADSVKGRFTISRDNAKNTVYLQMNSLKPEDTAVYYCNADDFGYASYEYWGQGSQVTVSS | low polyreactivity
QVQLLESGGGLVQAGGSLRLSCAASGRIIPYYAMGWYRQAPGKERELVATITSGGSTYYADSVKGRFTISRDNAKNTVYLQRNSLKPEDTAVYYCAARYPSIYYYRYDYWGQGTHVTVSS | high polyreactivity
QVQLLESGGGLVQAGGSLRLSCAASGRIYLYAMGWYRQTPGKERELVAAISYSGGSTYYADSVKGRFTISRDNAKNTVYLQMNSLKPEDTAVYYCAAEAGSYWRWFWYDSWGQGTQVTVSS | high polyreactivity
QVQLLESGGGLVQAGGSLRLSCAASGRTFEKNAMGWYRQAPGNERELVASITSVGSTDYADSVKGSFTISRDNAKNTVYLQMNSLKPEDNAVYYCAKTLGSQNYDFDYWGQGTQVNVSS | low polyreactivity
QVQLLESGGGLVQAGGSLRLSCAASGRTFHFNAMGWYRKAPWKERELVAAITNSGGRTSYADSVKGRFTISRDNAKNTVYLQMNSLKPEDTAVYYCNVEVTYSSGKYDYWGQGTQVTVSS | low polyreactivity
QVQLLESGGGLVQAGGSLRLSCAASGRTFRSYAMGWYRQAPGKERELVAAISRSDGSTYYAESVKVRFTISRDNAKNTVYLQMNSLKPEDTAVYYCARSLYASSYLMYYWGQGTQVTVSS | high polyreactivity
QVQLLESGGGLVQAGGSLRLSCAASGRTFRYNAMGWYRQAPGKERELVAAITGSGGSTYYADSVKGRFTISRDNAKNTVYLQMNSLKPEDTAVYYCARAYSYRLYPYGSWGQGTQVTVSS | high polyreactivity
QVQLLESGGGLVQAGGSLRLSCAASGRTFYGYTMGWYRQAPGKEWELVAAISTGGGSTYYADSVKGRFTISRDTAKNTVYLQMNSMKREDTAVYYCAARGGSYSFRRYNFWGQGTQVTVSS | high polyreactivity
QVQLLESGGGLVQAGGSLRLSCAASGRTIRNNTMGWYRQAPGKERELVARITWSGGSTYYADSVKGRFTISRDNAKNNVYLKMNRLKQEDTAVYYCAAVPILVYLWFQSYTGDYDYWGQGTQVTVSS | low polyreactivity
QVQLLESGGGLVQAGGSLRLSCAASGSIFRGYAMGWYRKAPGKERELVAAINWSGSSTYYADSVKGRFTISRDNAKKTVYLQMNSLKPEDTAVYYCARVYYNRNLGGDYWGQGTQVTVSS | low polyreactivity
QVQLLESGGGLVQAGGSLRLSCAASGSIFSYNAMGWYRQAPGTERELVAAITSGDSTNYADSVKGRFTISRDNAKNTVYLQMNSLKPEDTAVYYCAADPVLPAFGYVGTSLGYYWGQGTQVTVSS | low polyreactivity
QVQLLESGGGLVQAGGSLRLSCAASGSNFYVNAMGWYRQAPGKERELVAAITSTGTTHYADSVKGRFTISRDNAKNTDYLHMNSLKPEDTAVYYCAAYSRYQSRRYYYWGQGTQVTVSS | high polyreactivity
